According to paper PMC7710722, “A nanobody suite for yeast scaffold nucleoporins provides details of the nuclear pore complex structure” (Nature Communications, 2020):
Each block holds one binder with its values, some of them ahead of it.

Columns and labels:
Conditions in all cases: both partners purified
[1] = target: T1, Sec13 (analyte of the BLI of Table 1) (Saccharomyces cerevisiae S288c, UniProt Q04491); assay: BLI; biotinylated, C-terminally Avi-tagged nanobody immobilised on streptavidin tips, nup as analyte in twofold dilution series; 10 mM Tris/HCl pH 7.5, 150 mM NaCl, 1 mM DTT, 0.1 mM EDTA, 0.05% Tween-20, 0.1% BSA; global 1:1 kinetic fit
T1 construct: Sec13, S. cerevisiae; The analyte may have been Sec13 fused to the Nup145C insertion blade; source: E. coli, recombinant

[2] = target: T2, fusion construct of Nup145C-Sec13 (Saccharomyces cerevisiae S288c, UniProt P49687;Q04491); assay: SEC; nup and nanobody incubated 30 min on ice, then Superdex S75 or S200 10/300 in 150 mM NaCl, 10 mM Tris/HCl pH 7.5, 1 mM DTT, 0.1 mM EDTA
T2 construct: Nup145C, the C-terminal product of Nup145, S. cerevisiae; named among the 'full-length nups'; Sec13, S. cerevisiae; source: E. coli

[3] = target: T3, Nup120-Nup85-Seh1-Nup145C-Sec13 (Saccharomyces cerevisiae S288c, UniProt P35729;P46673;P53011;P49687;Q04491); assay: as above
T3 construct: Nup120, S. cerevisiae; Nup85, S. cerevisiae; Seh1, S. cerevisiae; Nup145C, the C-terminal product of Nup145, S. cerevisiae, residues 34-712; Sec13, S. cerevisiae; Nup145C and Sec13 may stand on one chain as in the fusion construct; also called assembled Y complex hub; source: E. coli, purified; assembled from Nup85-Seh1 and Nup120-Nup145C_(34–712)-Sec13 on Superdex S200; copies: + + + +

[4] = target: T4, Sec13 fused to the Nup145C insertion blade (Saccharomyces cerevisiae S288c, UniProt Q04491); assay: as above
T4 construct: Sec13, S. cerevisiae; Nup145C insertion blade, S. cerevisiae, residues 320-411 as printed; also called Sec13-Nup145C_(320–411); Sec13-Nup145C_(blade); source: E. coli LOBSTR-RIL(DE3), purified (Ni Sepharose, 3C protease, Superdex S75)

[5] = target: T5, Nup120 (analyte of the BLI of Table 1) (Saccharomyces cerevisiae S288c, UniProt P35729); assay: BLI; biotinylated, C-terminally Avi-tagged nanobody immobilised on streptavidin tips, nup as analyte in twofold dilution series; 10 mM Tris/HCl pH 7.5, 150 mM NaCl, 1 mM DTT, 0.1 mM EDTA, 0.05% Tween-20, 0.1% BSA; global 1:1 kinetic fit
T5 construct: Nup120, S. cerevisiae; source: E. coli, recombinant

[6] = target: T6, Nup84 (S. cerevisiae, UniProt P52891); assay: as above
T6 construct: Nup84, S. cerevisiae; limits not given; source: E. coli LOBSTR-RIL(DE3), purified (Ni Sepharose, 3C protease, HiTrap SP FF flow-through, Superdex S200)

[7] = target: T7, Nup85_(1–564) (S. cerevisiae, UniProt P46673 1-564); assay: crystal structure; nup-nanobody complexes crystallised at 18 °C; solved by molecular replacement
T7 construct: Nup85, S. cerevisiae, residues 1-564 (crown and trunk modules); The Nup85 chain of m31, written alone for the pairs that touch in the structure 6X08; also called Nup85_(trunk-crown); Nup85_(crown-trunk); source: E. coli LOBSTR-RIL(DE3), purified together with Seh1
T7 sequence (looked up): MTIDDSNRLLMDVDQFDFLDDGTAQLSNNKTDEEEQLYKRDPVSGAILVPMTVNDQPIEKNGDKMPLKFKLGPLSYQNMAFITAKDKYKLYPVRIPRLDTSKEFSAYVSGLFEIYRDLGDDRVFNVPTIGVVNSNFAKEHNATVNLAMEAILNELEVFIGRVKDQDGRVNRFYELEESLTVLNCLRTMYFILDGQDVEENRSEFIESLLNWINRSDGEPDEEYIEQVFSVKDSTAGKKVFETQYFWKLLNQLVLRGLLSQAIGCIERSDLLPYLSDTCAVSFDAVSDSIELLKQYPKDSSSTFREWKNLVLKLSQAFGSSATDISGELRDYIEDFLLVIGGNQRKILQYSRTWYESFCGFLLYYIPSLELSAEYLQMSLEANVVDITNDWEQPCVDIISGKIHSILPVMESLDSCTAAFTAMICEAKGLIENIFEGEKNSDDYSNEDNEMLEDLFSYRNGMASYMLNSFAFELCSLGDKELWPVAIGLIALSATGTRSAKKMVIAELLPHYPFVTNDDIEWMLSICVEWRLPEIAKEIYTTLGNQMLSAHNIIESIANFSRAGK

[8] = target: T8, Nup85 (analyte of the BLI of Table 1) (Saccharomyces cerevisiae S288c, UniProt P46673); assay: BLI; biotinylated, C-terminally Avi-tagged nanobody immobilised on streptavidin tips, nup as analyte in twofold dilution series; 10 mM Tris/HCl pH 7.5, 150 mM NaCl, 1 mM DTT, 0.1 mM EDTA, 0.05% Tween-20, 0.1% BSA; global 1:1 kinetic fit
T8 construct: Nup85, S. cerevisiae; the analyte may have been a complex with Seh1; source: E. coli, recombinant

[9] = target: T9, Nup133 (analyte of the BLI of Table 1) (Saccharomyces cerevisiae (strain ATCC …, UniProt P36161)); assay: as above
T9 construct: Nup133, S. cerevisiae; source: E. coli, recombinant

[10] = target: T10, Nic96_(186–839) (Saccharomyces cerevisiae S288c, UniProt P34077); assay: as above
T10 construct: The only Nic96 construct in the methods; source: E. coli LOBSTR-RIL(DE3), purified (Ni Sepharose, 3C protease, Superdex S200)

T5 sequence (P35729 whole entry): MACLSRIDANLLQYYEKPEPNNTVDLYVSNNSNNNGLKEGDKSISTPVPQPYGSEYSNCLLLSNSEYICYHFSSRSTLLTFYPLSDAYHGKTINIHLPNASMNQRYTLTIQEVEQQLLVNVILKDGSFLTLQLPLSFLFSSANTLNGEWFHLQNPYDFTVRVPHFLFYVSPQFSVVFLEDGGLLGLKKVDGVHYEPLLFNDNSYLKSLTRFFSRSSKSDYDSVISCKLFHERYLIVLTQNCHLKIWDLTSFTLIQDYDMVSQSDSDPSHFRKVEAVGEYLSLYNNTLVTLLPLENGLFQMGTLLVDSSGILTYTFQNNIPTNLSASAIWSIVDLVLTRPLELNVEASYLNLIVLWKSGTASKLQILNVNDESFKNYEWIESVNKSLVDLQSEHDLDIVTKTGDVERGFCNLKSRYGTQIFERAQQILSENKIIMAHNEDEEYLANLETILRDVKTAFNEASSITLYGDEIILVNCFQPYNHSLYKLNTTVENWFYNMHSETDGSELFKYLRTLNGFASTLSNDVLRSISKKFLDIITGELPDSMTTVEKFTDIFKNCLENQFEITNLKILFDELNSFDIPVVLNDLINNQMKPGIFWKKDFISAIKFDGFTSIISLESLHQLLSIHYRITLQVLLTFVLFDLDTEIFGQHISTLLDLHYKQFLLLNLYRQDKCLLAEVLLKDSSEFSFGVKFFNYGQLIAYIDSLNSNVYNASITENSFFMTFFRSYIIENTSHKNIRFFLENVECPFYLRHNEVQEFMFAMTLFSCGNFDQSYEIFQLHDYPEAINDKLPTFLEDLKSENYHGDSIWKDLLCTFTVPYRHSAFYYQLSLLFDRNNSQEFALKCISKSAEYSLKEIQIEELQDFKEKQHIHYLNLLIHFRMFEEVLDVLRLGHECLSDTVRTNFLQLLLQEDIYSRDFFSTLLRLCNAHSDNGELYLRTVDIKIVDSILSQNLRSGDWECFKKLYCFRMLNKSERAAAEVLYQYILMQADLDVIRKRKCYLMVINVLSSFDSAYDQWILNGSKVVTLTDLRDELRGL
T9 sequence (P36161 whole entry): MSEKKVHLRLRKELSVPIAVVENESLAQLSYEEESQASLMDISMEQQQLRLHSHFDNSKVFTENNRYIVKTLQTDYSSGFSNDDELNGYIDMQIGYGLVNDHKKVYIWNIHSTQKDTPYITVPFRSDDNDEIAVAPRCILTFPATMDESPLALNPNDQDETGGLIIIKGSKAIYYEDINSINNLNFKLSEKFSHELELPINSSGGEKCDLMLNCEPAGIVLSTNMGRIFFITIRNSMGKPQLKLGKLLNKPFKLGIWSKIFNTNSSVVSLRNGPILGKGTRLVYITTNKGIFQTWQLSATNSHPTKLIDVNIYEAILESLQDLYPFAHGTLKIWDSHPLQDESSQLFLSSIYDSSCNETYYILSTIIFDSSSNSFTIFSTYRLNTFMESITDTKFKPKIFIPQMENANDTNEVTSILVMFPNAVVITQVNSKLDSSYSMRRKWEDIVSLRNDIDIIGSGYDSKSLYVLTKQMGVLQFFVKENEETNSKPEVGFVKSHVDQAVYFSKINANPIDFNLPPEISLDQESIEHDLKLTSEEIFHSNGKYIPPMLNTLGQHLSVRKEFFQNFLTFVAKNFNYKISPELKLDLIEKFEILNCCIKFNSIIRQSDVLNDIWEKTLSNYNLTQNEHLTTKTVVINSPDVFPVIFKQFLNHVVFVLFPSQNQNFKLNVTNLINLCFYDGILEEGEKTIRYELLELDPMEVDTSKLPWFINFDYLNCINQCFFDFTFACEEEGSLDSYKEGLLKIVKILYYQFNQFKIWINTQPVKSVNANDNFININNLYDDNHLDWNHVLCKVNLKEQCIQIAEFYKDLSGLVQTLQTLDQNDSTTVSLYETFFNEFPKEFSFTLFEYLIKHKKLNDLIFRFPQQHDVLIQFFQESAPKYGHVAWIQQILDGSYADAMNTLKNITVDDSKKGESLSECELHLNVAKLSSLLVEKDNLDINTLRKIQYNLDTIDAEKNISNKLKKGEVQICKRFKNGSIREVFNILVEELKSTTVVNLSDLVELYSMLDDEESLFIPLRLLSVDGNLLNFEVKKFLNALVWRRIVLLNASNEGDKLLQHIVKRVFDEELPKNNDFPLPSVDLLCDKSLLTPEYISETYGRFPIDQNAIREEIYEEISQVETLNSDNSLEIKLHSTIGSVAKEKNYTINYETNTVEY
T1 sequence (Q04491 whole entry, the tested form may be a part): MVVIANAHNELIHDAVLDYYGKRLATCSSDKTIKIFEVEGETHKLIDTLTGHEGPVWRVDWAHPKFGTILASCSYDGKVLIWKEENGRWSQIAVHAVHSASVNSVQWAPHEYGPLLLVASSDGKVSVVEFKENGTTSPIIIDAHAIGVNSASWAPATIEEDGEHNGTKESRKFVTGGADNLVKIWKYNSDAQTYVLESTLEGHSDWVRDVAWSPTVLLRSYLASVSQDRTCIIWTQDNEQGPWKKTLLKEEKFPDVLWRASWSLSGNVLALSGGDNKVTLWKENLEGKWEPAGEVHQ
T6 sequence (P52891 whole entry): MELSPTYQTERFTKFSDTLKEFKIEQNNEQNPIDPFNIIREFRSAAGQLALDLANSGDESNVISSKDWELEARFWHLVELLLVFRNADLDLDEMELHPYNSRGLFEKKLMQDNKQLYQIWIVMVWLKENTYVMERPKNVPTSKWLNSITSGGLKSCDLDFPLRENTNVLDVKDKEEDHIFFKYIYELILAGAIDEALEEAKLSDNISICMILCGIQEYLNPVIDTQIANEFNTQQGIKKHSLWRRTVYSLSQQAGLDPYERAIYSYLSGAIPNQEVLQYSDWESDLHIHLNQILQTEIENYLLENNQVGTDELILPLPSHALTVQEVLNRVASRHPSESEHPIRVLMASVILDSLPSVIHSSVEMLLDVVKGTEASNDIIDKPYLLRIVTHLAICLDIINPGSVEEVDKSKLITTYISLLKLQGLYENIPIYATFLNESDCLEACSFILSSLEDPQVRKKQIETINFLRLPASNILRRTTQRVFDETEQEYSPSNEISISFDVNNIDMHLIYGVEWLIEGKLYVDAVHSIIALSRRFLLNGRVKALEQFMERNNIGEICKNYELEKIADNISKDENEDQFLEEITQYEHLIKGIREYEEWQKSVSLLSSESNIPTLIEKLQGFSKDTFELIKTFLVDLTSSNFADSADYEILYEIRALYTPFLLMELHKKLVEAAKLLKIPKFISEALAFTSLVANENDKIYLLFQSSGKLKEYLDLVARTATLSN

- Kd [1]: 0.51 nM
- koff [1]: 0.00065 s⁻¹
- kon [1]: 1.3e+06 M⁻¹ s⁻¹
B1: VHH-SAN7 with biotinylated C-terminal Avi-tag (VHH)
VHH: QVQLVETGGGLVQPGGSLRLSCVASGSIFGINAMGWYRQAPGNQRELVASIRSDFGTTKYADSVKGRFTISRGNARTTVYLQMNSLKPEDTAVYYCRIWSADGNYWGQGTQVTVSS
notes: Separate Avi-tagged construct used for BLI; source: E. coli LOBSTR-RIL(DE3), biotin added to the culture, purified (Ni Sepharose, SEN-p protease, Superdex S75); not shown: 14xHis, N-terminal, cleaved; bdSUMO, N-terminal, cleaved; Avi-tag, C-terminal, kept

- binding result [2]: binds
- binding result [3]: binds
B2: VHH-SAN7 (VHH)
VHH: QVQLVETGGGLVQPGGSLRLSCVASGSIFGINAMGWYRQAPGNQRELVASIRSDFGTTKYADSVKGRFTISRGNARTTVYLQMNSLKPEDTAVYYCRIWSADGNYWGQGTQVTVSS
notes: source: E. coli LOBSTR-RIL(DE3), purified (Ni Sepharose, SEN-p protease, Superdex S75); not shown: 14xHis, N-terminal, cleaved; bdSUMO, N-terminal, cleaved

- binding result [4]: no binding
- binding result [2]: binds
B3: VHH-SAN6 (VHH)
VHH: QLQLVETGGGSVQAGGSLSLSCIVSGRTSTYYAMGWFRQAPGKEREFVAAINWSGSSTVYEESVKGRFTISRDNVQNTVYLQMNSLKPEDTADYYCAAAATIFIPRPDEYPYWGQGTQVTVSS
notes: as for B2

- Kd [5]: 0.79 nM
- koff [5]: 0.00078 s⁻¹
- kon [5]: 980000 M⁻¹ s⁻¹
B4: VHH-SAN11 with biotinylated C-terminal Avi-tag (VHH)
VHH: QVQLVETGGGLVRAGGSLRLSCVDSGRTFRVYTMGWFRQAPGKEREFVAAIRWSGDRTYYGDPVQGRFTISRDKGKNTVYLQMNSLKPEDTAVYYCAAPAGGGVVYDDHKAYAYWGQGTQVTVS
notes: also in PDB 6X06; Separate Avi-tagged construct used for BLI; source: E. coli LOBSTR-RIL(DE3), biotin added to the culture, purified (Ni Sepharose, SEN-p protease, Superdex S75); not shown: 14xHis, N-terminal, cleaved; bdSUMO, N-terminal, cleaved; Avi-tag, C-terminal, kept

- Kd [6]: 0.17 nM
- koff [6]: 7.7e-05 s⁻¹
- kon [6]: 440000 M⁻¹ s⁻¹
B5: VHH-SAN9 with biotinylated C-terminal Avi-tag (VHH)
VHH: QVQLVESGGGSVQAGGSLRLSCAVSGGTLSTLAMGWFRQAPGQEREFVARIGWTNGDTGYADSVKGRFTISRDNVKNTVYLQMNNLKPEDTALYYCATRRPYGSTLYPPNTESAHDNWGQGTQVTVSS
notes: as for B1

- binding result [7]: binds
B6: Seh1 (natural protein, S. cerevisiae)
chain: MQPFDSGHDDLVHDVVYDFYGRHVATCSSDQHIKVFKLDKDTSNWELSDSWRAHDSSIVAIDWASPEYGRIIASASYDKTVKLWEEDPDQEECSGRRWNKLCTLNDSKGSLYSVKFAPAHLGLKLACLGNDGILRLYDALEPSDLRSWTLTSEMKVLSIPPANHLQSDFCLSWCPSRFSPEKLAVSALEQAIIYQRGKDGKLHVAAKLPGHKSLIRSISWAPSIGRWYQLIATGCKDGRIRIFKITEKLSPLASEESLTNSNMFDNSADVDMDAQGRSDSNTEEKAELQSNLQVELLSEHDDHNGEVWSVSWNLTGTILSSAGDDGKVRLWKATYSNEFKCMSVITAQQ
notes: Seh1, S. cerevisiae; Used alone in SEC with VHH-SAN1; also written alone for its contact with Nup85(1-564) in the structure 6X08; also called Seh1 alone; source: E. coli

- Kd [5]: 0.38 nM
- koff [5]: 0.00017 s⁻¹
- kon [5]: 450000 M⁻¹ s⁻¹
B7: VHH-SAN10 with biotinylated C-terminal Avi-tag (VHH)
VHH: QVQLVETGGGLVQAGGSLRLSCVVSGRTFSSYAMGWFRQAPGKEREFVSGINWSGGSAYYGDSVKGRFTISRDNAKNTVYLQMNSLKPEDTAVYYCVADRAWRGTTWRADSSYDYWGQGTQVTVSS
notes: deposited with PDB 6X06, but no density for VHH-SAN10 in the map; Separate Avi-tagged construct used for BLI; source: E. coli LOBSTR-RIL(DE3), biotin added to the culture, purified (Ni Sepharose, SEN-p protease, Superdex S75); not shown: 14xHis, N-terminal, cleaved; bdSUMO, N-terminal, cleaved; Avi-tag, C-terminal, kept

- Kd [8]: 0.014 nM
- koff [8]: 8.1e-06 s⁻¹
- kon [8]: 580000 M⁻¹ s⁻¹
B8: VHH-SAN3 with biotinylated C-terminal Avi-tag (VHH)
VHH: QVQLVESGGGLVQAGGSLRLSCFASGGTFSRYDMGWFRQAPGKEREFVARITRGGRVADYAAFVEGRFTISRDNAKNTVYLQMNSLKPEDTGIYFCAGKDAGVFDFYLWGQGTQVTVSS
notes: as for B1

- Kd [6]: 0.063 nM
- koff [6]: 2.2e-05 s⁻¹
- kon [6]: 350000 M⁻¹ s⁻¹
B9: VHH-SAN8 with biotinylated C-terminal Avi-tag (VHH)
VHH: QLQLVETGGGLVQAGGSLRLSCVASGRTFTSYAMGWFRQAPGKEREFVAAISRLASGTDYADSVKGRFTISRNNDKNTVYLQMNNLIPEDTAVYYCAALQALRFSLPIAMATMKNGRADSWGQGTQVTVSS
notes: as for B1

- Kd [8]: 0.08 nM
- koff [8]: 8.1e-05 s⁻¹
- kon [8]: 1e+06 M⁻¹ s⁻¹
B10: VHH-SAN2 with biotinylated C-terminal Avi-tag (VHH)
VHH: QVQLVETGGGLVQPGGSLRLSCAASGFTLDDYAIGWFRQAPGKEREGVSCISRSGGSTTYTDSVKGRFTISRDNAENTVYLQMNSLKPEDTAVYYCAAARTRGTCWLNRIGMDYWGKGTQVTVSS
notes: also in PDB 6X08; Separate Avi-tagged construct used for BLI; source: E. coli LOBSTR-RIL(DE3), biotin added to the culture, purified (Ni Sepharose, SEN-p protease, Superdex S75); not shown: 14xHis, N-terminal, cleaved; bdSUMO, N-terminal, cleaved; Avi-tag, C-terminal, kept

- Kd [9]: 230 nM
- koff [9]: 0.22 s⁻¹
- kon [9]: 950000 M⁻¹ s⁻¹
B11: VHH-SAN4 with biotinylated C-terminal Avi-tag (VHH)
VHH: QLQLVESGGGSVQAGGSLTLSCTASESISKRIHGIGWFRQRRGEQREEIAYITTGGRPNLGDSVKDRFTISRDKSNGTVYLQMNSLKPEDTAVYYCHGRGRWWGTEGRLDYWGQGTQVTVSS
notes: as for B1

- Kd [8]: 0.58 nM
- koff [8]: 0.0014 s⁻¹
- kon [8]: 2.3e+06 M⁻¹ s⁻¹
B12: VHH-SAN1 with biotinylated C-terminal Avi-tag (VHH)
VHH: QVQLVETGGGLVPPGGSLKLSCAVSGDILRVQTMGWYRQAPGKQRELVAAFTGGGRTNYADSMKGRFTISRDNAKNTVFLQMNSLKPEDTAVYYCRADIAAVRPWPLQEYWGQGTQVTVSS
notes: as for B1

- Kd [9]: 10 nM
- koff [9]: 0.0028 s⁻¹
- kon [9]: 280000 M⁻¹ s⁻¹
B13: VHH-SAN5 with biotinylated C-terminal Avi-tag (VHH)
VHH: QVQLVESGGGLVQAGGSLRLSCAASGSIGSLDAMAWYRRAPGKQRERVASISRYGTYYVDSVKGRFTISRDNAKNTVYLQMNSLKPEDTGVYYCKGVMEVGGVIDEYWGQGTQVTVSS
notes: as for B1

- Kd [10]: 1.3 nM
- koff [10]: 0.0024 s⁻¹
- kon [10]: 1.8e+06 M⁻¹ s⁻¹
B14: VHH-SAN12 with biotinylated C-terminal Avi-tag (VHH)
VHH: QVQLVETGGGLVQAGGSLRLSCATSGFNFRLRTMGWYRQAPGKERELVASITSGGSTDYADSVKGRFTISRDNAKNTISLEMNSLKPDDTAVYYCNIWAPTTAAITNWGQGTQVTVSS
notes: also in PDB 6X07; Separate Avi-tagged construct used for BLI; source: E. coli LOBSTR-RIL(DE3), biotin added to the culture, purified (Ni Sepharose, SEN-p protease, Superdex S75); not shown: 14xHis, N-terminal, cleaved; bdSUMO, N-terminal, cleaved; Avi-tag, C-terminal, kept
